Measured values: patent US20180214568A1 (US Dept. of Health and Human Services, published 2018)

B1: m906 IgG1 (antibody, V domains shown)
VH: EVQLVQSGAEVKKPGSSVKVSCKASGGTFTGYYMHWVRQAPGQGLEWMGWINPNSGGTNYAQKFQGRVTMTRDTSISTAYMELSRLRSDDTAVYYCARDLSSGYSGYFDYWGQGTLVTVSS
VL: DVVMTQSPLSLPVTPGEPASISCRSSQSLLHSNGYNFLDWYLQKPGQSPQLLIYLGSNRASGVPDRFSGSGSGTDFTLKISRVEADDVGVYYCMQSLQTPWTFGHGTKVEIKR
B2: m900 IgG1 (antibody, V domains shown)
VH: not shown
VL: EIVLTQSPATLSLSPGERATLSCRASQSVSSYLAWYQQKPGQAPRLLIYDASNRATGIPARFSGSGSGTDFTLTISSVQAEDVGVYYCQQYHGTPTFGQGTKVEIKR

Target: T1, mouse CD56 (mouse, UniProt P13595 20-711, limits assumed)
T1 construct: the construct is not described
Assay: ELISA on coated mouse CD56 ectodomain, IgG titrated, OD405
Experimental: Protein was coated on ELISA plate wells at 50 ng/well in PBS at 4° C. overnight. After blocking of unbound surface with 2% non-fat dried milk in PBST, serially diluted antibody solutions were added, and incubated for 2 hours at 37° C. The bound human antibodies were detected with goat anti-human Fc specific IgG conjugated with horseradish peroxidase.

T1 sequence (P13595 20-711 limits assumed): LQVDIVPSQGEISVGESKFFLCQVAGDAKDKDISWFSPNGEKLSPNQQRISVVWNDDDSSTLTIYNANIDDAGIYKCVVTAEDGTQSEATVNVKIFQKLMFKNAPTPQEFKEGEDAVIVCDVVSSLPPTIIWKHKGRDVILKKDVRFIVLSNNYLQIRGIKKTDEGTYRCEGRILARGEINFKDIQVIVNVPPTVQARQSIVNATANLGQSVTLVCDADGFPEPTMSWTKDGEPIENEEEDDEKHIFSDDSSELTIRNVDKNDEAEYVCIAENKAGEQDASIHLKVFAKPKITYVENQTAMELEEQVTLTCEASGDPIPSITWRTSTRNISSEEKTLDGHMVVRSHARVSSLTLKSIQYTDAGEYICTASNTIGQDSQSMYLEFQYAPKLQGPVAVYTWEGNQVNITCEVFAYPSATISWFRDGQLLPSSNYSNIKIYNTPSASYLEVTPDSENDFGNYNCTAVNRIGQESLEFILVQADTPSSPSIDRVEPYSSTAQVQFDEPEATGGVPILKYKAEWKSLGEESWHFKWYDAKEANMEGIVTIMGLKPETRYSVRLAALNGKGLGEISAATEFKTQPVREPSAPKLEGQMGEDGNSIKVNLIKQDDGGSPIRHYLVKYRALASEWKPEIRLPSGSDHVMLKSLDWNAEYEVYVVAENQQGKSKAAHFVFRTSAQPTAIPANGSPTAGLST

Binder | EC50 (read off the curve) [nM] | binding result
B1 | ~0.08 | –
B2 | – | no binding (tested: 1000 nM)
